T1: Antp-PCP
T1 chain: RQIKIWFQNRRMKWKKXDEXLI

T2: R9-PCP
T2 chain: RRRRRRRRRXDEXLI

T3: cFΦR4-PCP (not fully specified)
T3 chain: FXRRRRQXDEXLI

T4: peptide 6 (Table 10)
T4 chain: RRRRXFDXXD

T5: peptide 7 (Table 10)
T5 chain: RRRRRRRRRDXXDX

B1: PTPRC (protein)
chain: YKIYDLHKKRSCNLDEQQELVERDDEKQLMNVEPIHADILLETYKRKIADEGRLFLAEFQSIPRVFSKFPIKEARKPFNQNKNRYVDILPYDYNRVELSEINGDAGSNYINASYIDGFKEPRKYIAAQGPRDETVDDFWRMIWEQKATVIVMVTRCEEGNRNKCAEYWPSMEEGTRAFGDVVVKINQHKRCPDYIIQKLNIVNKKEKATGREVTHIQFTSWPDHGVPEDPHLLLKLRRRVNAFSNFFSGPIVVHCSAGVGRTGTYIGIDAMLEGLEAENKVDVYGYVVKLRRQRCLMVQVEAQYILIHQALVEYNQFGETEVNLSELHPYLHNMKKRDPPSEPSPLEAEFQRLPSYRSWRTQHIGNQEENKSKNRNSNVIPYDYNRVPLKHELEMSKESEHDSDESSDDDSDSEEPSKYINASFIMSYWKPEVMIAAQGPLKETIGDFWQMIFQRKVKVIVMLTELKHGDQEICAQYWGEGKQTYGDIEVDLKDTDKSSTYTLRVFELRHSKRKDSRTVYQYQYTNWSVEQLPAEPKELISMIQVVKQKLPQKNSSEGNKHHKSTPLLIHCRDGSQQTGIFCALLNLLESAETEEVVDIFQVVKALRKARPGMVSTFEQYQFLYDVIASTYPAQNGQVKKNNHQEDKIEFDNEVDKVKQDANCVNPLGAPEKLPEAKEQAEGSEPTSGTEGPEHSVNGPASPALNQGS
B2: TCPTP (protein)
chain: MPTTIEREFEELDTQRRWQPLYLEIRNESHDYPHRVAKFPENRNRNRYRDVSPYDHSRVKLQNAENDYINASLVDIEEAQRSYILTQGPLPNTCCHFWLMVWQQKTKAVVMLNRIVEKESVKCAQYWPTDDQEMLFKETGFSVKLLSEDVKSYYTVHLLQLENINSGETRTISHFHYTTWPDFGVPESPASFLNFLFKVRESGSLNPDHGPAVIHCSAGIGRSGTFSLVDTCLVLMEKGDDINIKQVLLNMRKYRMGLIQTPDQLRFSYMAIIEGAKCIKGDSSIQKRWKELSKEDLSPAFDHSPNKIMTEKYN
B3: SHP2 (protein)
chain: AETTDKVKQGFWEEFETLQQQECKLLYSRKEGQRQENKNKNRYKNILPFDHTRVVLHDGDPNEPVSDYINANIIMPEFETKCNNSKPKKSYIATQGCLQNTVNDFWRMVFQENSRVIVMTTKEVERGKSKCVKYWPDEYALKEYGVMRVRNVKESAAHDYTLRELKLSKVGQGNTERTVWQYHFRTWPDHGVPSDPGGVLDFLEEVHHKQESIMDAGPVVVHCSAGIGRTGTFIVIDILIDIIREKGVDCDIDVPKTIQMVRSQRSGMVQTEAQYRFIYMAVQHYIETLQRRI
B4: PTP1B (protein)
chain: MEMEKEFEQIDKSGSWAAIYQDIRHEASDFPCRVAKLPKNKNRNRYRDVSPFDHSRIKLHQEDNDYINASLIKMEEAQRSYILTQGPLPNTCGHFWEMVWEQKSRGVVMLNRVMEKGSLKCAQYWPQKEEKEMIFEDTNLKLTLISEDIKSYYTVRQLELENLTTQETREILHFHYTTWPDFGVPESPASFLNFLFKVRESGSLSPEHGPVVVHCSAGIGRSGTFCLADTCLLLMDKRKDPSSVDIKKVLLEMRKFRMGLIQTADQLRFSYLAVIEGAKFIMGDSSVQDQWKELSHEDLEPPPEHIPPPPRPPKRILEPHN
B5: VHR (protein)
chain: MSGSFELSVQDLNDLLSDGSGCYSLPSQPCNEVTPRIYVGNASVAQDIPKLQKLGITHVLNAAEGRSFMHVNTNANFYKDSGITYLGIKANDTQEFNLSAYFERAADFIDQALAQKNGRVLVHCREGYSRSPTLVIAYLMMRQKMDVKSALSIVRQNREIGPNDGFLAQLCQLNDRLAKEGKLKP
B6: Caspase-3, Human, recombinant protein (protein)
chain: SGISLDNSYKMDYPEMGLCIIINNKNFHKSTGMTSRSGTDVDAANLRETFRNLKYEVRNKNDLTREEIVELMRDVSKEDHSKRSSFVCVLLSHGEEGIIFGTNGPVDLKKITNFFRGDRCRSLTGKPKLFIIQACRGTELDCGIETDSGVDDDMACHKIPVEADFLYAYSTAPGYYSWRNSKDGSWFIQSLCAMLKQYADKLEFMHILTRVNRKVATEFESFSFDATFHAKKQIPCIVSMLTKELYFYH

We go through six proteins from patent US20200385427.

In one series the target is T1, Antp-PCP.
Consider B1, for which the kcat/KM (dephosphorylation of pCAP peptide) was 22300 M⁻¹ s⁻¹.
Take B2: the kcat/KM (dephosphorylation of pCAP peptide) worked out at 970 M⁻¹ s⁻¹.
On to B3, for which the kcat/KM (dephosphorylation of pCAP peptide) was 2210 M⁻¹ s⁻¹.
For the protein B4, the kcat/KM (dephosphorylation of pCAP peptide) worked out at 17400 M⁻¹ s⁻¹.
Take B5: the kcat/KM (dephosphorylation of pCAP peptide) was determined as 2030 M⁻¹ s⁻¹.

The target of a further series is T2, R9-PCP.
For B1, the kcat/KM (dephosphorylation of pCAP peptide) is 2940 M⁻¹ s⁻¹.
Same read-out and setting: under B2 stands 457 M⁻¹ s⁻¹.
In the case of B3, the kcat/KM (dephosphorylation of pCAP peptide) was 248 M⁻¹ s⁻¹.
On the same count and under the same terms, with B4 the figure was 14700 M⁻¹ s⁻¹.
The same measure, in the same setting: with B5 the figure was 6240 M⁻¹ s⁻¹.

The next series concerns the target T3, cFΦR4-PCP.
B1: the kcat/KM (dephosphorylation of pCAP peptide) turned out to be 35100 M⁻¹ s⁻¹.
Turning to B2, the kcat/KM (dephosphorylation of pCAP peptide) was 2780 M⁻¹ s⁻¹.
Take B3: the kcat/KM (dephosphorylation of pCAP peptide) came out at 7400 M⁻¹ s⁻¹.
Consider B4, for which the kcat/KM (dephosphorylation of pCAP peptide) was found to be 37100 M⁻¹ s⁻¹.
In the case of B5, the kcat/KM (dephosphorylation of pCAP peptide) was 2460 M⁻¹ s⁻¹.

A further series deals with T4, peptide 6 (Table 10).
On to B6, for which the “decrease of substrate activity relative to peptide 3” value is “decreased its activity by 53% and 72%, respectively, relative to peptide 3”.

Another series has as its target T5, peptide 7 (Table 10).
B6: the “decrease of substrate activity relative to peptide 3” value is “decreased its activity by 53% and 72%, respectively, relative to peptide 3”.
